From patent US20220017627A1 (Bristol-Myers Squibb, published 2022)
Residue numbers refer to the chain shown, from its start. Numbers in names are those of the source.

T1: hIL-7R (Example 11) (human, UniProt P16871 21-239)
T1 construct: Called full length hIL-7R for the mRNA display and hIL-7R for the Biacore runs; also called full length hIL-7R; human IL-7R
T1 chain: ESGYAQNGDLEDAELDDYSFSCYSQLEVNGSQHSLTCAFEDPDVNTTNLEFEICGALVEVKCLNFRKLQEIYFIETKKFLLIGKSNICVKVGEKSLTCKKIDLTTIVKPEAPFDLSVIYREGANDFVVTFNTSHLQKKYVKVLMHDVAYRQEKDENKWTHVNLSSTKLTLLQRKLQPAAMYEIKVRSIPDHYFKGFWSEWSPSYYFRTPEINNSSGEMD

B1: 18B1 LC D50A (antibody, human IgG1, kappa, V domains shown)
VH: EVQLVESGGGLVQPGRSLRLSCAASGFTFDDHAMHWVRQAPGKGLEWVSGISWNSRGIGYADSVKGRFTIFRDNAKNSLYLQMNSLRAEDTALYYCAKDEYSRGYYVLDVWGQGTTVTVSS
VL: AIQLTQSPSSLSASVGDRVTITCRASQGISSALAWYQQKPGKAPKLLIYAASSLESGVPSRFSGSGSGTDFTLTISSLQPEDFATYYCQQFNSYPLWITFGQGTRLEIKR
B2: 18B1 LC S53A (antibody, human IgG1, kappa, V domains shown)
VH: B1 VH
VL: B1 VL with A50D, S53A
B3: 18B1 LC S52A (antibody, human IgG1, kappa, V domains shown)
VH: B1 VH
VL: B1 VL with A50D, S52A
B4: 18B1 LC E55A (antibody, human IgG1, kappa, V domains shown)
VH: B1 VH
VL: B1 VL with A50D, E55A
B5: 18B1 LC L54A (antibody, human IgG1, kappa, V domains shown)
VH: B1 VH
VL: B1 VL with A50D, L54A
B6: 18B1 LC S56A (antibody, human IgG1, kappa, V domains shown)
VH: B1 VH
VL: B1 VL with A50D, S56A
B7: 18B1 LC R24A (antibody, human IgG1, kappa, V domains shown)
VH: B1 VH
VL: B1 VL with R24A, A50D
B8: 18B1 LC T97A (antibody, V domains shown)
VH: B1 VH
VL: B1 VL with A50D, T99A
notes: copies: 2 + 2
B9: 18B1 LC L33A (antibody, human IgG1, kappa, V domains shown)
VH: B1 VH
VL: B1 VL with L33A, A50D
B10: 18B1 LC Q27A (antibody, human IgG1, kappa, V domains shown)
VH: B1 VH
VL: B1 VL with Q27A, A50D
B11: 18B1 LC I29A (antibody, human IgG1, kappa, V domains shown)
VH: B1 VH
VL: B1 VL with I29A, A50D
B12: 18B1 LC F91A (antibody, human IgG1, kappa, V domains shown)
VH: B1 VH
VL: B1 VL with A50D, F91A
B13: 18B1 LC S30A (antibody, human IgG1, kappa, V domains shown)
VH: B1 VH
VL: B1 VL with S30A, A50D
B14: 18B1 LC S26A (antibody, human IgG1, kappa, V domains shown)
VH: B1 VH
VL: B1 VL with S26A, A50D
B15: 18B1 LC P95A (antibody, human IgG1, kappa, V domains shown)
VH: B1 VH
VL: B1 VL with A50D, P95A
B16: 18B1 LC S93A (antibody, human IgG1, kappa, V domains shown)
VH: B1 VH
VL: B1 VL with A50D, S93A
B17: 18B1 LC N92A (antibody, human IgG1, kappa, V domains shown)
VH: B1 VH
VL: B1 VL with A50D, N92A
B18: 18B1 LC Q90A (antibody, human IgG1, kappa, V domains shown)
VH: B1 VH
VL: B1 VL with A50D, Q90A
B19: 18B1 LC G28A (antibody, human IgG1, kappa, V domains shown)
VH: B1 VH
VL: B1 VL with G28A, A50D
B20: 18B1 LC S31A (antibody, human IgG1, kappa, V domains shown)
VH: B1 VH
VL: B1 VL with S31A, A50D

Target: T1, hIL-7R (Example 11)
Experiment: NGS enrichment ratio of the mutation in the scFv library selected at 0.2 nM hIL-7R [cont'd]
Source text: (§1) All six CDRs of the antibody were mutated, with each position in the CDR mutated to all possible amino acids at that position. […] FIGS. 17A and 17B provide a schematic of the overall process.

| 0.2 nM NGS | Binder |
| --- | --- |
| 0.3 | B1 |
| 1.07 | B2 |
| 1.09 | B3 |
| 0.23 | B4 |
| 0.99 | B5 |
| 0.96 | B6 |

Target: T1, hIL-7R (Example 11)
Experiment: SPR (Biacore), ratio KD of parent 18B1 to KD of variant; row repeated at the end of the table [cont'd]
Source text: (§2) Affinity (KD) of each variant binding to hIL-7R was obtained using this approach, and compared against the enrichment ratio (ER) obtained through NGS heat map analysis for the same variant.

| KD Relative to 18B1 | Binder |
| --- | --- |
| 1.15 | B7 |

Target: T1, hIL-7R (Example 11)
Experiment: NGS enrichment ratio of the mutation in the scFv library selected at 0.2 nM hIL-7R
Source text: as §1

| 0.2 nM NGS | Binder |
| --- | --- |
| 0.92 | B8 |
| 1.05 | B9 |
| 1.27 | B10 |
| 1.44 | B11 |
| 0.05 | B12 |
| 0.7 | B13 |
| 1.32 | B14 |
| 0.91 | B7 |
| 0.03 | B15 |
| 1.84 | B16 |
| 0.34 | B17 |
| 1.63 | B18 |
| 1.05 | B19 |
| 0.6 | B20 |

Target: T1, hIL-7R (Example 11)
Experiment: SPR (Biacore), ratio KD of parent 18B1 to KD of variant [cont'd]
Source text: as §2

| KD Relative to 18B1 | Binder |
| --- | --- |
| 0.77 | B1 |
| 0.79 | B2 |
| 0.93 | B3 |
| 0.57 | B4 |
| 0.93 | B5 |
| 0.98 | B6 |

Target: T1, hIL-7R (Example 11)
Experiment: SPR (Biacore), ratio KD of parent 18B1 to KD of variant
Source text: as §2

| KD Relative to 18B1 | Binder |
| --- | --- |
| 1.16 | B8 |
| 1.08 | B9 |
| 1.06 | B10 |
| 1.46 | B11 |
| 0.19 | B12 |
| 0.88 | B13 |
| 1.28 | B14 |
| 1.15 | B7 |
| 0.08 | B15 |
| 1.86 | B16 |
| 0.63 | B17 |
| 1.46 | B18 |
| 0.85 | B19 |
| 0.74 | B20 |
